Measured values from PMC8956665, “Structural and molecular rationale for the diversification of resistance mediated by the Antibiotic_NAT family” (Communications Biology, 2022).

Target: meta-AAC0038^H168A (not stated (soil metagenome))
Experiment: crystal structure

meta-AAC0038^H168A (enzyme)
stoichiometry N: 2
